Test results: the supplement of paper PMC6757056
± gives the standard deviation of the averaged measurements.

B1: library; a variant is named by its letters at N, in order (parent)
chain: GCUGUCACCGAGAAACUGUGAAGUAUAUCUUAAACCUGGGCACUUAAAAGAUAUAUGGAGUUAGUAGUGCAACCUGCUCGGUCUGAUGAGUCCNNNNNNGGACGAAACAGC

Tests used:
cyclic di-GMP [1] = variants of: B1; test: normalized RNA/DNA level without ligand (relative to sTRSVctl = 100) (log10 (% of sTRSVctl)); HEK293T; ligand: cyclic di-GMP (c-di-GMP-II aptamer); higher = less ribozyme self-cleavage, higher mRNA level; settings: reporter: mCherry (pCS4076), ligand present: no
Outline: (§1)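 Library plasmids encoding reporter-linked ribozyme switches (mCherry, or eGFP for some folinic acid experiments) were transfected into HEK293T at 4 µg per 6-well well. Ligand, when used, was added 1 h before transfection. Total RNA was extracted with EDTA 72 h later, then reverse-transcribed, amplified, barcoded and sequenced. RNA level was RNA reads over DNA reads, divided by a spiked-in non-cleaving control (or the top 25 sequences), ×100, log10; only sequences with ≥100 DNA reads were kept.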

cyclic di-GMP [2] = variants of: B1; test: normalized RNA/DNA level with ligand (relative to sTRSVctl = 100) (log10 (% of sTRSVctl)); HEK293T; ligand: cyclic di-GMP (c-di-GMP-II aptamer); ligand concentration (+) RNA-Seq: 1 mM; higher = less ribozyme self-cleavage, higher mRNA level; settings: reporter: mCherry (pCS4076), ligand present: yes
Outline: as §1

Row | Variant | normalized RNA/DNA level without ligand (log10) (cyclic di-GMP [1]) | normalized RNA/DNA level with ligand (log10) (cyclic di-GMP [2])
1 | AUGCUC | 1.74 ± 0.052 | 1.85 ± 0.046
2 | AUGCUU | 1.61 ± 0.025 | 1.8 ± 0.12
3 | GUGCGG | 1.86 ± 0.043 | 1.92 ± 0.08
4 | GUGCGU | 1.69 ± 0.052 | 1.84 ± 0.14
5 | GUGCGC | 1.74 ± 0.057 | 1.88 ± 0.056
6 | GUGCGA | 1.6 ± 0.071 | 1.73 ± 0.1
7 | CUGUCC | 1.786 ± 0.0046 | 1.92 ± 0.12
8 | CUGUCG | 1.73 ± 0.047 | 1.84 ± 0.14
9 | CUGUCU | 1.57 ± 0.086 | 1.76 ± 0.067
10 | CUUCCG | 1.761 ± 0.017 | 1.89 ± 0.1
11 | CUUCCC | 1.8 ± 0.024 | 1.88 ± 0.14
12 | CUUCCA | 1.61 ± 0.089 | 1.78 ± 0.085
13 | GUGCCC | 1.782 ± 0.016 | 1.84 ± 0.099
14 | GUGCCA | 1.785 ± 0.015 | 1.9 ± 0.12
15 | GUGCCU | 1.81 ± 0.04 | 1.87 ± 0.1
16 | GUGGGU | 1.66 ± 0.081 | 1.85 ± 0.064
17 | GUGGGG | 1.65 ± 0.021 | 1.8 ± 0.14
18 | GUGGGA | 1.53 ± 0.073 | 1.72 ± 0.07
19 | GUGGGC | 1.44 ± 0.058 | 1.68 ± 0.13
20 | UUGCUC | 1.788 ± 0.015 | 1.86 ± 0.071
21 | UUGCUG | 1.7171 ± 3.9e-05 | 1.84 ± 0.14
22 | UUGCUA | 1.62 ± 0.052 | 1.81 ± 0.07
23 | UUGCUU | 1.727 ± 0.0027 | 1.88 ± 0.12
24 | UUUAUG | 1.707 ± 0.0064 | 1.84 ± 0.11

Row | Variant | normalized RNA/DNA level without ligand (log10) (cyclic di-GMP [1]) | normalized RNA/DNA level with ligand (log10) (cyclic di-GMP [2])
25 | UUUAUC | 1.74 ± 0.056 | 1.83 ± 0.12
26 | UUUAUA | 1.7 ± 0.035 | 1.84 ± 0.1
27 | UUUAUU | 1.72 ± 0.084 | 1.88 ± 0.15
28 | GUGCUC | 1.505 ± 0.0047 | 1.65 ± 0.17
29 | GUGCUA | 1.646 ± 0.0015 | 1.8 ± 0.091
30 | GUGCUG | 1.75 ± 0.024 | 1.86 ± 0.12
31 | GUGCUU | 1.71 ± 0.025 | 1.84 ± 0.14
32 | GUGGCU | 1.76 ± 0.029 | 1.86 ± 0.074
33 | GUGGCA | 1.81 ± 0.027 | 1.91 ± 0.097
34 | GUGGCG | 1.85 ± 0.022 | 1.87 ± 0.094
35 | AUGUAA | 1.54 ± 0.078 | 1.68 ± 0.14
36 | AUGUAG | 1.59 ± 0.017 | 1.77 ± 0.11
37 | CUGCGC | 1.823 ± 0.0074 | 1.92 ± 0.052
38 | CUGCGU | 1.723 ± 0.013 | 1.84 ± 0.1
39 | GUGUGG | 1.74 ± 0.041 | 1.86 ± 0.11
40 | GUGUGA | 1.41 ± 0.11 | 1.67 ± 0.084
41 | GUGUGU | 1.595 ± 0.003 | 1.77 ± 0.12
42 | AUGCAC | 1.714 ± 0.0048 | 1.86 ± 0.081
43 | AUGCAU | 1.62 ± 0.045 | 1.76 ± 0.12
44 | AUGCAA | 1.52 ± 0.029 | 1.66 ± 0.12
45 | AUGCAG | 1.7646 ± 0.00074 | 1.89 ± 0.055
46 | UUGGGA | 1.57 ± 0.1 | 1.72 ± 0.1
47 | UUGGGG | 1.61 ± 0.057 | 1.78 ± 0.094
48 | UUGGGC | 1.72 ± 0.023 | 1.84 ± 0.091

Row | Variant | normalized RNA/DNA level without ligand (log10) (cyclic di-GMP [1]) | normalized RNA/DNA level with ligand (log10) (cyclic di-GMP [2])
49 | UUGGGU | 1.68 ± 0.024 | 1.84 ± 0.088
50 | AUGGUU | 1.46 ± 0.03 | 1.68 ± 0.1
51 | AUGGUC | 1.67 ± 0.018 | 1.81 ± 0.1
52 | CUGUGA | 1.54 ± 0.075 | 1.77 ± 0.081
53 | CUGUGG | 1.7 ± 0.048 | 1.85 ± 0.11
54 | CUGUGC | 1.739 ± 0.013 | 1.85 ± 0.095
55 | CUGUGU | 1.75 ± 0.027 | 1.86 ± 0.11
56 | UUGUAC | 1.74 ± 0.089 | 1.85 ± 0.18
57 | UUGUAA | 1.685 ± 0.015 | 1.86 ± 0.15
58 | UUUCCA | 1.78 ± 0.028 | 1.9 ± 0.13
59 | UUUCCC | 1.83 ± 0.07 | 1.94 ± 0.13
60 | CUGCUG | 1.63 ± 0.055 | 1.79 ± 0.11
61 | CUGCUU | 1.6 ± 0.06 | 1.76 ± 0.09
62 | CUGCUC | 1.7 ± 0.0046 | 1.83 ± 0.14
63 | CUGCUA | 1.4 ± 0.025 | 1.57 ± 0.091
64 | CUGCAU | 1.6242 ± 0.0013 | 1.77 ± 0.16
65 | CUGCAG | 1.73 ± 0.075 | 1.88 ± 0.11
66 | CUGCAC | 1.742 ± 0.0034 | 1.88 ± 0.1
67 | UUGCGC | 1.74 ± 0.027 | 1.83 ± 0.072
68 | UUGCGG | 1.84 ± 0.045 | 1.94 ± 0.04
69 | UUGCGA | 1.778 ± 0.01 | 1.88 ± 0.076
70 | UUGCAC | 1.75 ± 0.024 | 1.85 ± 0.11
71 | UUGCAU | 1.669 ± 0.0095 | 1.81 ± 0.081
72 | UUGCAA | 1.69 ± 0.075 | 1.81 ± 0.037

Row | Variant | normalized RNA/DNA level without ligand (log10) (cyclic di-GMP [1]) | normalized RNA/DNA level with ligand (log10) (cyclic di-GMP [2])
73 | UUGCAG | 1.8468 ± 0.00037 | 1.9 ± 0.042
74 | AUUAGU | 1.686 ± 0.01 | 1.83 ± 0.11
75 | AUUAGA | 1.52 ± 0.12 | 1.69 ± 0.058
76 | AUUAGG | 1.56 ± 0.065 | 1.72 ± 0.17
77 | CUUAUC | 1.73 ± 0.088 | 1.87 ± 0.14
78 | CUUAUG | 1.67 ± 0.022 | 1.81 ± 0.1
79 | CUUAUU | 1.54 ± 0.023 | 1.71 ± 0.065
80 | AUUCCG | 1.75 ± 0.021 | 1.84 ± 0.078
81 | CUUACC | 1.77 ± 0.049 | 1.86 ± 0.15
82 | CUUACG | 1.82 ± 0.085 | 1.87 ± 0.19
83 | CUUACU | 1.59 ± 0.079 | 1.79 ± 0.048
84 | CUUCAC | 1.734 ± 0.0076 | 1.86 ± 0.088
85 | CUUCAG | 1.732 ± 0.0075 | 1.81 ± 0.067
86 | AUGAUA | 1.53 ± 0.069 | 1.71 ± 0.14
87 | AUGAUC | 1.65 ± 0.049 | 1.82 ± 0.087
88 | AUUACA | 1.63 ± 0.027 | 1.79 ± 0.071
89 | AUUACC | 1.73 ± 0.057 | 1.88 ± 0.052
90 | AUUACU | 1.73 ± 0.029 | 1.86 ± 0.081
91 | UUUAGC | 1.76 ± 0.054 | 1.86 ± 0.14
92 | UUUAGA | 1.716 ± 0.011 | 1.87 ± 0.086
93 | UUUAGG | 1.87 ± 0.057 | 1.96 ± 0.14
94 | UUGGAU | 1.63 ± 0.032 | 1.83 ± 0.1
95 | UUGGAC | 1.665 ± 0.0078 | 1.78 ± 0.08
96 | UUGGAG | 1.6 ± 0.037 | 1.71 ± 0.066

Row | Variant | normalized RNA/DNA level without ligand (log10) (cyclic di-GMP [1]) | normalized RNA/DNA level with ligand (log10) (cyclic di-GMP [2])
97 | AUGGAC | 1.6 ± 0.055 | 1.76 ± 0.091
98 | AUGGAG | 1.55 ± 0.1 | 1.68 ± 0.084
99 | GUGAUA | 1.5 ± 0.034 | 1.7 ± 0.097
100 | AUUCAC | 1.76 ± 0.021 | 1.88 ± 0.09
101 | AUUCAA | 1.58 ± 0.032 | 1.77 ± 0.15
102 | AUUCAU | 1.74 ± 0.045 | 1.84 ± 0.11
103 | UUGCCG | 1.83 ± 0.058 | 1.91 ± 0.12
104 | UUGCCA | 1.8 ± 0.08 | 1.82 ± 0.13
105 | UUGCCU | 1.746 ± 0.0023 | 1.89 ± 0.091
106 | UUGCCC | 1.83 ± 0.081 | 1.84 ± 0.2
107 | GUUCCC | 1.8 ± 0.021 | 1.9 ± 0.13
108 | GUUCCG | 1.82 ± 0.039 | 1.94 ± 0.1
109 | CUGUUG | 1.56 ± 0.035 | 1.69 ± 0.076
110 | CUGUUU | 1.575 ± 0.0091 | 1.72 ± 0.12
111 | CUGUUC | 1.64 ± 0.038 | 1.79 ± 0.12
112 | GUGAGG | 1.61 ± 0.06 | 1.8 ± 0.093
113 | GUGAGU | 1.59 ± 0.053 | 1.77 ± 0.11
114 | CUGCCA | 1.613 ± 0.0037 | 1.76 ± 0.18
115 | CUGCCG | 1.78 ± 0.011 | 1.92 ± 0.064
116 | CUGCCU | 1.64 ± 0.028 | 1.81 ± 0.15
